In patent US20250041437A1, “HUMANIZED MUC1 ANTIBODY AND ANTIBODY DRUG CONJUGATE” (Sun Pharma Advanced Research Company Limited, priority 2023, published 2025) one finds Geometric Mean : FL6-A data, which are given here for one molecule.

Experiment [1] concerns the target human MUC1 on cells (DA3-TM transfectants and human cancer cell lines SKOV3, COLO357, HT29 and others) (human) (UniProt P15941). The experiment can be described thus: flow cytometry on DA3-TM cells; table row 2 of 5 from the top, concentration not printed in this figure. (In flow cytometry, cells or beads pass a laser one at a time.)
Experiment [2] has the same target. The experiment can be described thus: flow cytometry on DA3-TM cells; table row 3 of 5 from the top, concentration not printed in this figure.
Experiment [3] has the same target. The experiment can be described thus: flow cytometry on DA3-TM cells; table row 5 of 5 from the top, concentration not printed in this figure.
For experiment [4] the target is unchanged. The experiment can be described thus: flow cytometry on DA3-TM cells; table row 4 of 5 from the top, concentration not printed in this figure.

human MUC1 on cells (DA3-TM transfectants and human cancer cell lines SKOV3, COLO357, HT29 and others) (human), sequence (P15941 24-1255 limits assumed): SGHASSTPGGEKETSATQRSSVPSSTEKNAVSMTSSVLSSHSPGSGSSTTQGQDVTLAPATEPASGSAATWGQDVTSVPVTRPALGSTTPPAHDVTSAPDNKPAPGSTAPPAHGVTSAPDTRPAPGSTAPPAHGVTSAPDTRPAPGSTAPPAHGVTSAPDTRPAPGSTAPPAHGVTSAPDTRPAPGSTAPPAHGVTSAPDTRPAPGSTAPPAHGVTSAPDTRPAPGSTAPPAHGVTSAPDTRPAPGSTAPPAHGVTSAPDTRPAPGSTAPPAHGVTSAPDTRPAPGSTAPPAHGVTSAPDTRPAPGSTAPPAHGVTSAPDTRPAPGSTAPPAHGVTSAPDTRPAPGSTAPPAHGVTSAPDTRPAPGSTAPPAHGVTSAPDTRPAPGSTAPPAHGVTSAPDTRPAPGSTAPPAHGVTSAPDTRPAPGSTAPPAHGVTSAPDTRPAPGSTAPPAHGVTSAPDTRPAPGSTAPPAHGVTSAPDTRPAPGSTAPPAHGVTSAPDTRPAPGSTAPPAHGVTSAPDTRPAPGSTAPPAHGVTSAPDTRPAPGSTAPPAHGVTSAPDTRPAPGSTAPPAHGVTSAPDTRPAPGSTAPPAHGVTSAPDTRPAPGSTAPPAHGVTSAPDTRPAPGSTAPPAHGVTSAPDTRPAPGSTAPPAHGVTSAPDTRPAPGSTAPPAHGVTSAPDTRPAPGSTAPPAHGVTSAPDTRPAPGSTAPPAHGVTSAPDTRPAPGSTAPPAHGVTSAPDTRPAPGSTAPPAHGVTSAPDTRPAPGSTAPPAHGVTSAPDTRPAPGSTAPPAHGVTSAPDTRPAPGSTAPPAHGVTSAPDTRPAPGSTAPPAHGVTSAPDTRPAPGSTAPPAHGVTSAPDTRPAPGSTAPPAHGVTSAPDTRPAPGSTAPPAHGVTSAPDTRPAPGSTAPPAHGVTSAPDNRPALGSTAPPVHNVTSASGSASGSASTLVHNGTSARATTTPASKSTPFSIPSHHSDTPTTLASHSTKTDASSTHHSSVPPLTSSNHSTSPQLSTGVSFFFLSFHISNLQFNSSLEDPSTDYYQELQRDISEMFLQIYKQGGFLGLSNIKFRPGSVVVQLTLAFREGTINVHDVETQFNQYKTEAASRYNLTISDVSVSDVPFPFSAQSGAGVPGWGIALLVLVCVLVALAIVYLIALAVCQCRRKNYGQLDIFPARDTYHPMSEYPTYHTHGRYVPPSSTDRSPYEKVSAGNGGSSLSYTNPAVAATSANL

B1: Hu-5F3 (HM1 LM2) (antibody, V domains shown)
VH: EIQLVQSGAEVKKPGSSVKVSCKVTGHSITRGSSWHWMRQAPGQGLEWIGYIHYGGGTSYNPSLKSRATLTVDTSTNTAYMELSSLRSEDTAFYFCARYSYDITYRWFFDVWGQGTLVTVSS
VL: DIQMTQSPSTLSASVGDRVTITCRASQNIGTSIHWYQQKPGKAPKLLIKRASESISGVPSRFSGSGSGTEFTLTISSLQPDDFATYYCQQNNNWPLTFGQGTKVEVK
With B1, the Geometric Mean : FL6-A in experiment [1] came to 114; in experiment [2], 71.4; in experiment [3], 35.9; in experiment [4], 45.3.
